Data: US20230408517A1 (BIO TECHNE, published 2023)
Like-named read-outs stand apart in the source and are kept apart here.

Key:
[1] = molecular target: T1, recombinant SARS-CoV-2 spike S1 RBD (R319-F541), C-terminal 6-His (SARS-CoV-2, UniProt P0DTC2 319-541); assay: sandwich dipstick, detector Ab4-AuNP
[2] = molecular target: T2, UK variant RBD (R319-F541 with N501Y), C-terminal 6-His (SARS-CoV-2, UniProt P0DTC2 319-541); assay: sandwich dipstick, detector Ab4-AuNP
[3] = molecular target: T3, SA variant RBD (R319-F541 with K417N, E484K, N501Y), C-terminal 6-His (SARS-CoV-2, UniProt P0DTC2 319-541); assay: sandwich dipstick, detector Ab4-AuNP
[4] = molecular target: T4, BR P.1 variant RBD (R319-F541 with K417T, E484K, N501Y), C-terminal 6-His (SARS-CoV-2, UniProt P0DTC2 319-541); assay: sandwich dipstick, detector Ab4-AuNP
[5] = molecular target: T1, recombinant SARS-CoV-2 spike S1 RBD …; assay: sandwich dipstick, detector Ab5-AuNP
[6] = molecular target: T2, UK variant RBD (R319-F541 with N501Y), …; assay: sandwich dipstick, detector Ab5-AuNP
[7] = molecular target: T3, SA variant RBD (R319-F541 with K417N, …); assay: sandwich dipstick, detector Ab5-AuNP
[8] = molecular target: T4, BR P.1 variant RBD (R319-F541 with …); assay: sandwich dipstick, detector Ab5-AuNP
[9] = molecular target: T1, recombinant SARS-CoV-2 spike S1 RBD …; assay: lateral flow NC50, RBD-AuNP vs immobilised ACE2
[10] = molecular target: T2, UK variant RBD (R319-F541 with N501Y), …; assay: lateral flow NC50, RBD-AuNP vs immobilised ACE2
[11] = molecular target: T3, SA variant RBD (R319-F541 with K417N, …); assay: lateral flow NC50, RBD-AuNP vs immobilised ACE2
[12] = molecular target: T4, BR P.1 variant RBD (R319-F541 with …); assay: lateral flow NC50, RBD-AuNP vs immobilised ACE2
[13] = molecular target: T1, recombinant SARS-CoV-2 spike S1 RBD …; assay: lateral flow NC50, RBD-AuNP vs immobilised ACE2; remark: listed apart in the source
[14] = molecular target: T2, UK variant RBD (R319-F541 with N501Y), …; assay: lateral flow NC50, RBD-AuNP vs immobilised ACE2; remark: listed apart in the source
[15] = molecular target: T3, SA variant RBD (R319-F541 with K417N, …); assay: lateral flow NC50, RBD-AuNP vs immobilised ACE2; remark: listed apart in the source
[16] = molecular target: T4, BR P.1 variant RBD (R319-F541 with …); assay: lateral flow NC50, RBD-AuNP vs immobilised ACE2; remark: listed apart in the source
[17] = molecular target: BR P.2 variant RBD (R319-F541 with E484K) (SARS-CoV-2, UniProt P0DTC2 319-541); assay: lateral flow NC50, RBD-AuNP vs immobilised ACE2
[18] = molecular target: K417E RBD (R319-F541 with K417E) (SARS-CoV-2, UniProt P0DTC2 319-541); assay: lateral flow NC50, RBD-AuNP vs immobilised ACE2
[19] = molecular target: T478K RBD (R319-F541 with T478K) (SARS-CoV-2, UniProt P0DTC2 319-541); assay: lateral flow NC50, RBD-AuNP vs immobilised ACE2
[20] = molecular target: T1, recombinant SARS-CoV-2 spike S1 RBD …; assay: flow cytometry, blocking of binding to hACE-2 cells
[21] = molecular target: T1, recombinant SARS-CoV-2 spike S1 RBD …; assay: as above; remark: listed apart in the source
[22] = molecular target: T4, BR P.1 variant RBD (R319-F541 with …); assay: as above
[23] = molecular target: T5, IN v2 variant RBD (R319-F541 with L452R, T478K) (SARS-CoV-2, UniProt P0DTC2 319-541); assay: as above
[24] = molecular target: rSARS2 RBD aa319-541, N439K, C-His (SARS-CoV-2, UniProt P0DTC2 319-541); assay: as above
[25] = molecular target: rSARS2-B.1.1.7 S aa16-1211 2x aa mut., C-His (SARS-CoV-2, UniProt P0DTC2 16-1211); assay: as above
[26] = molecular target: rSARS2-B.1.1.7 S aa16-1211 4x aa mut., C-His (SARS-CoV-2, UniProt P0DTC2 16-1211); assay: as above
[27] = molecular target: rSARS2-B.1.617.2 S aa16-1211 10+4x aa mut., C-His (SARS-CoV-2, UniProt P0DTC2 16-1211); assay: as above
[28] = molecular target: T6, L452R RBD (R319-F541 with L452R) (SARS-CoV-2, UniProt P0DTC2 319-541); assay: dipstick, adsorbed RBD spots, Ab 10 µg/mL, GAM-AuNP
[29] = molecular target: T7, IN v1 variant RBD (R319-F541 with L452R, E484Q) (SARS-CoV-2, UniProt P0DTC2 319-541); assay: lateral flow assay: blocking of RBD-AuNP capture by ACE2
[30] = molecular target: T5, IN v2 variant RBD (R319-F541 with …); assay: as above
[31] = molecular target: T6, L452R RBD (R319-F541 with L452R); assay: as above
[32] = molecular target: T7, IN v1 variant RBD (R319-F541 with …); assay: as above; remark: listed apart in the source
[33] = molecular target: T5, IN v2 variant RBD (R319-F541 with …); assay: as above; remark: listed apart in the source

B1: 1035224 (antibody, V domains shown)
VH: EVQLQQSGAEFVRPGALVKLSCKASGFNIKDDYMHWVKQRPEQGLEWIGWIDPENGNSIYDPKFQGKASITADTSSNTAYLQLSSLTSEDTAVYYCARGEYFGSGSFAYWGQGTLVTVSA
VL: QIVLTQSPAIMSASPGEKVTISCSASSSVSYMYWYQQKPGSSPKPWIYRTSNLASGVPARFSGSGSGTSYSLTISSMEAEDAATYYCQQYHSYPYMYTFGGGTKLEIK
B1 was tested, and the detection sensitivity [1] was 0.01 µg/mL, the detection sensitivity [2] was 0.01 µg/mL and the detection sensitivity [3] was 0.01 µg/mL. It also gave a detection sensitivity [4] of 0.01 µg/mL, a detection sensitivity [5] of 0.001 µg/mL and a detection sensitivity [6] of 0.001 µg/mL. The detection sensitivity [7] was 0.001 µg/mL, the detection sensitivity [8] was 0.001 µg/mL and the IC50 [9] was 0.66 µg/mL. It also gave an IC50 [10] of 2.72 µg/mL, an IC50 [11] of 1.14 µg/mL and an IC50 [12] of 1.11 µg/mL. The IC50 [13] was 0.66 µg/mL, the IC50 [14] was 2.72 µg/mL and the IC50 [15] was 1.14 µg/mL. For the same binder, the IC50 [16] was 1.11 µg/mL, the IC50 [17] was 0.54 µg/mL and the IC50 [18] was 0.38 µg/mL. The IC50 [19] was 0.76 µg/mL, the percent blocking [20] was 99.1% and the percent blocking [21] was 99.1%. The percent blocking [22] was 88%, the percent blocking [23] was 0% and the percent blocking [24] was 96.1%. For the same binder, the percent blocking [25] was 33.9%, the percent blocking [26] was 74.1% and the percent blocking [27] was 0%. B1: no binding (tested: 10 µg/mL) [28]; no binding (tested: 10 µg/mL) [29]; no binding (tested: 10 µg/mL) [30].

B2: 1035753 (antibody, V domains shown)
VH: EVQLQQSGAELVRPGALVKLSCKASGFNIKDYYMHWVKQRPEQGLEWIGWIDPENGNTIYDPKFLGKASITADTSSNTAYLQLSSLTSEDTAVYYCARWYYYAMDSWGQGTSVTVSS
VL: DIQMTQTTSSLSASLGDRVTISCSASQGISNYLNWYQQKPDGTVKLLIYYTSSLHSGVPSRFSGSGSGTDYSLTISNLEPEDIATYYCQQYSKLPFTFGGGTNLEMK
For B2, the detection sensitivity [1] was 0.01 µg/mL, the detection sensitivity [2] was 0.01 µg/mL and the detection sensitivity [3] was 0.01 µg/mL. It also gave a detection sensitivity [4] of 0.01 µg/mL, a detection sensitivity [5] of 0.001 µg/mL and a detection sensitivity [6] of 0.001 µg/mL. It also gave a detection sensitivity [7] of 0.001 µg/mL, a detection sensitivity [8] of 0.001 µg/mL and an IC50 [9] of 1.66 µg/mL. The IC50 [10] was 1.51 µg/mL, the IC50 [11] was 3.19 µg/mL and the IC50 [12] was 2.21 µg/mL. It also gave an IC50 [13] of 1.66 µg/mL, an IC50 [14] of 1.51 µg/mL and an IC50 [15] of 3.19 µg/mL. It also gave an IC50 [16] of 2.21 µg/mL, an IC50 [17] of 3.22 µg/mL and an IC50 [18] of 0.89 µg/mL. The IC50 [19] was 2.29 µg/mL, the percent blocking [20] was 94.7% and the percent blocking [21] was 94.7%. The percent blocking [22] was 90.4%, the percent blocking [23] was 0% and the percent blocking [24] was 96.2%. It also gave a percent blocking [25] of 93.6%, a percent blocking [26] of 81.2% and a percent blocking [27] of 0%. B2: no binding (tested: 10 µg/mL) [31]; no binding (tested: 10 µg/mL) [32]; no binding (tested: 10 µg/mL) [33].
